Assay results from publication PMC9491697 (PNAS Nexus, 2022).
“And” between values parts separate entries of the source, which are not always exact repeats. Identical values can stand only once.

T1: human E-cadherin ectodomain EC1–5 with Twin-Strep and 8His tags (used for BLI) (Homo sapiens)
T1 construct: the range counts on the precursor; also called E-cadherin used for BLI; source: Expi293, transfected, purified from culture supernatant (StrepTactin XT)
T1 chain: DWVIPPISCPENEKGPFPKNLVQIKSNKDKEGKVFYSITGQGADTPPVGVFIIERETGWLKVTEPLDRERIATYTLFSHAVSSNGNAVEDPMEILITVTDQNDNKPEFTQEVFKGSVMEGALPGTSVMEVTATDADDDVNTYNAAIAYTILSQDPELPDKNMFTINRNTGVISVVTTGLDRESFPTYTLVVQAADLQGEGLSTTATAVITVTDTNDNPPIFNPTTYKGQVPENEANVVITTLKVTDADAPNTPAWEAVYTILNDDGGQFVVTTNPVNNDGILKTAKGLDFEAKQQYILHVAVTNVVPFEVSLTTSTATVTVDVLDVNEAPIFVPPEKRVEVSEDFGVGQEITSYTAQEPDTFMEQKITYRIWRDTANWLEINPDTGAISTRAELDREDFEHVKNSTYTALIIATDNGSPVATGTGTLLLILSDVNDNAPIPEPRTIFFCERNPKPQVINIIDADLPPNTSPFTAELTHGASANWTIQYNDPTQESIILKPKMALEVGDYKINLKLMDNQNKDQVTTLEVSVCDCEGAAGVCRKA

B1: 66E8 Fab (Fab, V domains shown)
VH: EVQLQQSGPELVKPGASVKISCKASGYSFTGYFMNWVKQSHGKSLEWIGRINPYNGDTFYKQRFKGKATLTVDKSSSTVHMDLLSLTSEDSAVYYCGRGNYYFDYWGQGTTLTVSS
VL: DVQITQSPSYLAASPGETITINCRTSKNISKYLAWYQEKPGKTNKLLIYSGYTLQSGIPSRFSGSGSGTDFTLTISSLEPEDFAMYYCQQHNEYPYTFGGGTKLEIK
notes: heavy chain of the 66E8 Fab in PDB 6VEL; light chain of the 66E8 Fab in PDB 6VEL; Fab as used in BLI and analytical SEC; source: ExpiCHO, transfected, purified
B2: 66E8 Fab (activating antibody to human E-cadherin) (Fab, V domains shown)
VH: B1 VH
VL: B1 VL
notes: source: ExpiCHO, transfected, purified (CaptureSelect LC-kappa (mur) and Ni-NTA, or StrepTactin XT); kifunensine and Endo Hf for crystallography
B3: 19A11 Fab (activating antibody to human E-cadherin) (Fab, V domains shown)
VH: QVQLKESGPGLVAPSQSLSITCTVSGFSLSRYGVHWVRQPPGKGLEWLGMMWGGGNTDYNSALKSRLSISKDNSKSQVFLKMNSLQTDDTAMYYCASSNYVLGYAMDYWGQGTSVTVSS
VL: DIVMTQSPSSLAMSVGQKVTMNCKSSQSLLNSSNQKNYLAWYQQKPGQSPKLLIYFTSTRGSGVPDRFIGSGSGTDFTLTISSVEAEDLADYFCQQHYRTPHTFGGGTKVEIK
notes: The 6His form was used for the crystal complex; Purified on a murine kappa light chain resin; also called 19A11-6His Fab; source: ExpiCHO, transfected, purified (CaptureSelect LC-kappa (mur) and Ni-NTA, or StrepTactin XT); ConA-cleared for crystallography

Tests used:
[1] = target: T2, human E-cadherin EC1-5-TwinStrep-8His (Homo sapiens, UniProt P12830); experiment: BLI; E-cadherin EC1-5-TwinStrep-8His loaded on Ni-NTA sensors; Fabs in a 1:3 dilution series; Octet Red96, 23°C, 1000 rpm; 50 mM Tris pH 8.0, 150 mM NaCl, 3 mM CaCl2, 0.25 mg/mL BSA, 0.005% Tween-20; 1:1 binding global fit; settings: both partners purified
T2 construct: human E-cadherin extracellular domains EC1-5, residues 155 to 698; also called hEC1-5-TS-8His; hE-EC15-TS-8H; source: Expi293, transfected, purified from supernatant (StrepTactin XT); not shown: Twin-Strep, C-terminal, kept; 8His, C-terminal, kept

[2] = target: T1, human E-cadherin ectodomain EC1–5 with …; experiment: BLI; method taken from the construct description (E-cadherin used for BLI had an additional 8His tag); format and conditions not shown; settings: both partners purified

Binder | Kd [1] | Kd [2] [nM]
B1 | 90.1 nM and 96.5 nM and 91.8 nM and 92.8 nM | –
B2 | – | ~100
B3 | – | ~6.5
